The results in this text go back to article PMC4482762.

The test addresses endogenous 14-3-3ε (UniProt P62258). The test can be described thus: GFP-Trap of YFP-R6, Western blot. The settings on record: reference: YFP-R6 wild type; sites S74. (In western blotting, separated proteins are transferred to a membrane and probed.)

For the substance “PPP1R3D (R6) (from UniProt O95685) YFP-R6 S74A”, the “binding against the reference” value was “lost”.
